For experiment [1], the system named is mouse CIA model (DBA1/J mice). Nature of the experiment: Mouse collagen induced arthritis (CIA) model, therapeutic protocol. The format is in vivo. Particulars: 10 mg/kg, 3x week, i.p., day 31 to day 46. How it is done: DBA1/J mice (male, 6-7 weeks old, approx 20 gram) were obtained from Centre d'Elevage Regional Janvier (Laval, France). Mice were kept on a 12 hr light/dark cycle (0700-1900). Temperature was maintained at 22° C., and food and water were provided ad libitum.
One day before the experiment, CII solution (2 mg/mL) was prepared with 0.05 M acetic acid and stored at 4° C. Just before the immunization, equal volumes of adjuvant […] and CII were mixed by a homogenizer in a pre-cooled glass bottle in an ice water bath. Extra adjuvant and prolonged homogenization may be required if an emulsion is not formed. 0.1 mL of the emulsion was injected intradermally at the base of the tail of each mouse on day 1, a second booster intradermal injection (CII solution at 2 mg/mL in […] 0.1 mLemulsion) was performed on day 21. This immunization method was modified from published methods (Brand et al, 2007, Collagen-induced arthritis. Nature Protocols; vol 2 (5): 1269-1275; Lin et al., 2007, Anti-rheumatic activities of histone deacetylase (HDAC) inhibitors in vivo in collagen-induced arthritis in rodents. Br J Pharmacol. April; 150 (7):829-31).
The therapeutic effects of the antibodies were tested in the mouse CIA model. Mice were randomly divided into equal groups and each group contained 10 mice. All mice were immunized on day 1 and boosted on day 21. Therapeutic dosing lasted from day 31 to day 46. The negative control group was treated with vehicle (PBS) and the positive control group with Enbrel (10 mg/kg, 3× week, i.p.). An antibody of interest was tested at 10 mg/kg, i.p. 3 times per week.
Anti-IL17C antibodies were administered i.p. three times a week at 10 mg/kg. […]
Arthritis was scored according to the method of Khachigian 2006 (Collagen antibody-induced arthritis. (2006) Nature Protocols 1, 2512-6), Lin et al 2007 (supra); Nishida et al. 2004 (Histone deacetylase inhibitor suppression of autoantibody-mediated arthritis in mice via regulation of p16INK4a and p21(WAF1/Cip1) expression. Arthritis Rheum. 10: 3365-76); and Brand et al. 2007 (supra). […]

The test system of experiment [2] is BALB/c female mice, LPS-induced acute lung neutrophilia. As to the kind of experiment: Intranasal instillation of LPS, mouse model of acute lung neutrophilia. The format is in vivo. Conditions: single treatment 5 mg/kg i.p. 24 hours before LPS instillation; BAL 24 hours after LPS. How it is done:
Two independent studies were conducted with one negative mAb and two positive mAbs in the intranasal instillation of Lipopolysaccharide (LPS) mouse model of acute lung neutrophilia, a model which mimics some relevant aspects of COPD (Chronic Obstructive Pulmonary Disease). The effects were measured by Broncho Alveolar Lavage (BAL) inflammatory cell counting.
Several groups of mice were treated with different antibodies and Dexamethasone and compared to the mice subjected to LPS only.
BALB/c female mice from Harlan (France) were used in the study. Mice weight was around 20 g.
Mice were anesthetized by isoflurane inhalation. During the breathing, LPS was instilled intranasally. After 24 h, mice were anesthetized intra-peritoneally (IP) and Broncho Alveolar Lavage procedure was performed. Mice were anesthetized by injection of anaesthetic solution of 0.1 mL per 10 g of the mouse weight. The anaesthetic solution was composed of 18 ml 0.9% NaCl, 0.5 mL xylazine (5 mg/Kg) and 1.5 mL ketamine (75 mg/Kg).
The trachea was exposed through midline incision and canulated (with a mice catheter). BAL was performed twice using 1 mL of sterile PBS buffer. […] The cells were counted using a cell counter (Vet abc, France). […]
For all groups, BAL was performed 24 hours after LPS administration and cell counts were measured.
The results were analyzed using Student t-test. […]

B1: MOR12743: anti-mouse IL17C HuCAL antibody; CDRs SEQ ID NO: 31-36, VL 37, VH 38; human/mouse chimeric IgG2a (antibody, V domains shown)
VH: QVQLVQSGAEVKKPGASVKVSCKASGYTFTSNFIHWVRQAPGQGLEWMGWISPYNGDTNYAQKFQGRVTMTRDTSISTAYMELSRLRSEDTAVYYCARESVYYGSDYGYNGMDIWGQGTLVTVSS
VL: DIELTQPPSVSVSPGQTASITCSGDNLGEEYVSWYQQKPGQAPVLVIYDDTKRPSGIPERFSGSNSGNTATLTISGTQAEDEADYYCASWDLWSVEVFGGGTKLTVLGQ
modifications: mouse IgG2a constant regions; VH; VL
In the case of B1, the “inhibition of inflammation / disease progression (clinical score)” value in experiment [1] is on record as “significant inhibition”. The “inhibition of the recruitment of inflammatory cells into the BALF” value in experiment [2] is “inhibited significantly”.
